For the assay, the target named is T1, recombinant hAng2 (C-His, R&D Systems) (human, UniProt O15123 19-496).
T1 construct: also called human Ang2 protein
T1 sequence: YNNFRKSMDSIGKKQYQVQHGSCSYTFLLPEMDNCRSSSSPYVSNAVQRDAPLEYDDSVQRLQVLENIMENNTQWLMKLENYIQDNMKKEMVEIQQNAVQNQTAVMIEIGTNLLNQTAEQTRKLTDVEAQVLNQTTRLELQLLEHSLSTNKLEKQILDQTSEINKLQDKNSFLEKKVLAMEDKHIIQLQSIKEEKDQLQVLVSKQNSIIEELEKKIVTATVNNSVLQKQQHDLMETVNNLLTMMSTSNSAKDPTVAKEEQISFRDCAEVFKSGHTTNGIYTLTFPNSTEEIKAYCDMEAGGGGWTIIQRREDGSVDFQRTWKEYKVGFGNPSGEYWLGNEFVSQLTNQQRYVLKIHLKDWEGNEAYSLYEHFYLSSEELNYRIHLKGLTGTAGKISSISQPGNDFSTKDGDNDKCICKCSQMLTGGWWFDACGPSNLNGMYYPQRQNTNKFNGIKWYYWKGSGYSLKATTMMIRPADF
In words: SPR, BIAcore T100; hAng2 (C-His) captured on anti-His antibody on a CM5 chip, antibody flowed from 100 nM in twofold dilutions. The protocol: The binding affinity of the above antibody to human Ang2 protein was measured by an SPR method using a BIAcore T100 (GE Healthcare). The SPR method uses refractive index change of light which passes a sensor chip according to the state of materials coated onto the sensor chip, and if an antigen or an antibody is flowed onto a chip coated with the antigen or antibody, it causes changes in refractive index due to their binding and Kd values are thus calculated from the measured values.
First, anti-His antibody was immobilized on a CM5 sensor chip (GE healthcare) up to 8,000 RU levels using a pH 5.0 acetate solution and an amine coupling kit (GE Healthcare). 6 μg/ml of a recombinant hAng2 (C-His, R&D Systems) protein was flowed onto the chip to be captured at 100 to 200 RU levels.
On the technique in general: Surface plasmon resonance follows binding to a sensor surface in real time, without labels.

Here are results for 1 molecule from patent publication US20150079112A1 (SAMSUNG ELECTRONICS, published 2015).

B1: SAIT-ANG2-AB-m10D6 (antibody, V domains shown)
VH: DVQLQESGPGLVKPSQSLSLTCTVTGYSITSDYAWNWIRQFPGNKLEWMGYINYSGNTDYNPSLKSRSSITRDTSKNQFFLQLNSVTTGDTATYYCARGNFEGAMDYWGQGTSVTVSS
VL: SIVMTQTPKFLLVSAGDRVTITCKASQSVSNDVAWYQQKPGQSPKLLIYYASNRYPGVPDRFTGSGYGTDFTFTISTVQAEDLAVYFCQQDYSSPWTFGGGTKLEIK
notes: also called antibody 10D6; anti-Ang2 antibody (10D6)
The term Kd denotes the concentration at which binding is half-saturated. On to B1, for which the dissociation constant (Kd) is 8 nM.
